The assay addresses Menveo, Neisseria meningitidis oligosaccharide (A, C, W135, Y) CRM197 conjugate vaccine, without β-glucan … (UniProt P00588 33-567). Kind of assay: competitive ELISA, soluble murine Fc-dectin-1a on coated glucan. A general note: In an ELISA, binding on a coated surface is turned into a signal by an enzyme label.

B1: soluble murine Fc-dectin-1a receptor (InvivoGen) (Fc fusion)
chain: EYGHNSGRNPEEKDNFLSRNKENHKPTESSLDEKVAPSKASQTTGGFSQPCLPNWIMHGKSCYLFSFSGNSWYGSKRHCSQLGAHLLKIDNSKEFEFIESQTSSHRINAFWIGLSRNQSEGPWFWEDGSAFFPNSFQVRNTAPQESLLHNCVWIHGSEVYNQICNTSSYSICEKEL
As for B1, the binding result is “no binding”.
